# B1: library; numbered along this chain (parent)
# chain: MRKPRAAVGSGHRKQAASQEGRQKHAKNNSQAKPSACDGLARQPEEVVLQASVSSYHLFRDVAEVTAFRGSLLSWYDQEKRDLPWRRRAEDEMDLDRRAYAVWVSEVMLQQTQVATVINYYTGWMQKWPTLQDLASASLEEVNQLWAGLGYYSRGRRLQEGARKVVEELGGHMPRTAETLQQLLPGVGRYTAGAIASIAFGQATGVVDGNVARVLCRVRAIGADPSSTLVSQQLWGLAQQLVDPARPGDFNQAAMELGATVCTPQRPLCSQCPVESLCRARQRVEQEQLLASGSLSGSPDVEECAPNTGQCHLCLPPSEPWDQTLGVVNFPRKASRKPPREESSATCVLEQPGALGAQILLVQRPNSGLLAGLWEFPSVTWEPSEQLQRKALLQELQRWAGPLPATHLRHLGEVVHTFSHIKLTYQVYGLALEGQTPVTTVPPGARWLTQEEFHTAAVSTAMKKVFRVYQGQQPGTCMGSKRSQVSSPCSRKKPRMGQQVLDNFFRSHISTDAHSLNSAAQ
# Variants of: B1
# Test: 8OG:A repair function score (normalized; synonymous = 0, nonsense = -1) (normalized log-likelihood score); higher = more repair activity (WT-like)
# Settings: with 8OG:A DNA repair reporter (GFP) in HEK-293 MUTYH KO cells
# Method: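 Saturation mutagenesis (NNN codon scan) of the MUTYH cDNA (521-aa nuclear isoform NM_001048174.1 / NP_001041639), stably expressed under doxycycline induction in HEK-293 MUTYH knockout cells. Cells were co-transfected with an 8OG:A-bearing GFP repair reporter plus mCherry and sorted 72 h later into GFP+ and GFP− bins, three replicates per tile. The Rosace log2 enrichment (GFP+ vs GFP−) was converted per tile to a normalized function score with synonymous variants centered at 0 and nonsense variants (codons 1-471) at -1; low-abundance variants were removed.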
row,Variant,8OG:A repair function score
1,MRFPRAAVGSGHRKQAASQEGRQKHAKNNSQAKPSACDGLARQPEEVVLQASVSSYHLFRDVAEVTAFRGSLLSWYDQEKRDLPWRRRAEDEMDLDRRAYAVWVSEVMLQQTQVATVINYYTGWMQKWPTLQDLASASLEEVNQLWAGLGYYSRGRRLQEGARKVVEELGGHMPRTAETLQQLLPGVGRYTAGAIASIAFGQATGVVDGNVARVLCRVRAIGADPSSTLVSQQLWGLAQQLVDPARPGDFNQAAMELGATVCTPQRPLCSQCPVESLCRARQRVEQEQLLASGSLSGSPDVEECAPNTGQCHLCLPPSEPWDQTLGVVNFPRKASRKPPREESSATCVLEQPGALGAQILLVQRPNSGLLAGLWEFPSVTWEPSEQLQRKALLQELQRWAGPLPATHLRHLGEVVHTFSHIKLTYQVYGLALEGQTPVTTVPPGARWLTQEEFHTAAVSTAMKKVFRVYQGQQPGTCMGSKRSQVSSPCSRKKPRMGQQVLDNFFRSHISTDAHSLNSAAQ [K3F],0.00169
2,MRCPRAAVGSGHRKQAASQEGRQKHAKNNSQAKPSACDGLARQPEEVVLQASVSSYHLFRDVAEVTAFRGSLLSWYDQEKRDLPWRRRAEDEMDLDRRAYAVWVSEVMLQQTQVATVINYYTGWMQKWPTLQDLASASLEEVNQLWAGLGYYSRGRRLQEGARKVVEELGGHMPRTAETLQQLLPGVGRYTAGAIASIAFGQATGVVDGNVARVLCRVRAIGADPSSTLVSQQLWGLAQQLVDPARPGDFNQAAMELGATVCTPQRPLCSQCPVESLCRARQRVEQEQLLASGSLSGSPDVEECAPNTGQCHLCLPPSEPWDQTLGVVNFPRKASRKPPREESSATCVLEQPGALGAQILLVQRPNSGLLAGLWEFPSVTWEPSEQLQRKALLQELQRWAGPLPATHLRHLGEVVHTFSHIKLTYQVYGLALEGQTPVTTVPPGARWLTQEEFHTAAVSTAMKKVFRVYQGQQPGTCMGSKRSQVSSPCSRKKPRMGQQVLDNFFRSHISTDAHSLNSAAQ [K3C],-0.0701
3,MRDPRAAVGSGHRKQAASQEGRQKHAKNNSQAKPSACDGLARQPEEVVLQASVSSYHLFRDVAEVTAFRGSLLSWYDQEKRDLPWRRRAEDEMDLDRRAYAVWVSEVMLQQTQVATVINYYTGWMQKWPTLQDLASASLEEVNQLWAGLGYYSRGRRLQEGARKVVEELGGHMPRTAETLQQLLPGVGRYTAGAIASIAFGQATGVVDGNVARVLCRVRAIGADPSSTLVSQQLWGLAQQLVDPARPGDFNQAAMELGATVCTPQRPLCSQCPVESLCRARQRVEQEQLLASGSLSGSPDVEECAPNTGQCHLCLPPSEPWDQTLGVVNFPRKASRKPPREESSATCVLEQPGALGAQILLVQRPNSGLLAGLWEFPSVTWEPSEQLQRKALLQELQRWAGPLPATHLRHLGEVVHTFSHIKLTYQVYGLALEGQTPVTTVPPGARWLTQEEFHTAAVSTAMKKVFRVYQGQQPGTCMGSKRSQVSSPCSRKKPRMGQQVLDNFFRSHISTDAHSLNSAAQ [K3D],-0.233
4,MRAPRAAVGSGHRKQAASQEGRQKHAKNNSQAKPSACDGLARQPEEVVLQASVSSYHLFRDVAEVTAFRGSLLSWYDQEKRDLPWRRRAEDEMDLDRRAYAVWVSEVMLQQTQVATVINYYTGWMQKWPTLQDLASASLEEVNQLWAGLGYYSRGRRLQEGARKVVEELGGHMPRTAETLQQLLPGVGRYTAGAIASIAFGQATGVVDGNVARVLCRVRAIGADPSSTLVSQQLWGLAQQLVDPARPGDFNQAAMELGATVCTPQRPLCSQCPVESLCRARQRVEQEQLLASGSLSGSPDVEECAPNTGQCHLCLPPSEPWDQTLGVVNFPRKASRKPPREESSATCVLEQPGALGAQILLVQRPNSGLLAGLWEFPSVTWEPSEQLQRKALLQELQRWAGPLPATHLRHLGEVVHTFSHIKLTYQVYGLALEGQTPVTTVPPGARWLTQEEFHTAAVSTAMKKVFRVYQGQQPGTCMGSKRSQVSSPCSRKKPRMGQQVLDNFFRSHISTDAHSLNSAAQ [K3A],0.108
5,MRGPRAAVGSGHRKQAASQEGRQKHAKNNSQAKPSACDGLARQPEEVVLQASVSSYHLFRDVAEVTAFRGSLLSWYDQEKRDLPWRRRAEDEMDLDRRAYAVWVSEVMLQQTQVATVINYYTGWMQKWPTLQDLASASLEEVNQLWAGLGYYSRGRRLQEGARKVVEELGGHMPRTAETLQQLLPGVGRYTAGAIASIAFGQATGVVDGNVARVLCRVRAIGADPSSTLVSQQLWGLAQQLVDPARPGDFNQAAMELGATVCTPQRPLCSQCPVESLCRARQRVEQEQLLASGSLSGSPDVEECAPNTGQCHLCLPPSEPWDQTLGVVNFPRKASRKPPREESSATCVLEQPGALGAQILLVQRPNSGLLAGLWEFPSVTWEPSEQLQRKALLQELQRWAGPLPATHLRHLGEVVHTFSHIKLTYQVYGLALEGQTPVTTVPPGARWLTQEEFHTAAVSTAMKKVFRVYQGQQPGTCMGSKRSQVSSPCSRKKPRMGQQVLDNFFRSHISTDAHSLNSAAQ [K3G],0.00287
6,MREPRAAVGSGHRKQAASQEGRQKHAKNNSQAKPSACDGLARQPEEVVLQASVSSYHLFRDVAEVTAFRGSLLSWYDQEKRDLPWRRRAEDEMDLDRRAYAVWVSEVMLQQTQVATVINYYTGWMQKWPTLQDLASASLEEVNQLWAGLGYYSRGRRLQEGARKVVEELGGHMPRTAETLQQLLPGVGRYTAGAIASIAFGQATGVVDGNVARVLCRVRAIGADPSSTLVSQQLWGLAQQLVDPARPGDFNQAAMELGATVCTPQRPLCSQCPVESLCRARQRVEQEQLLASGSLSGSPDVEECAPNTGQCHLCLPPSEPWDQTLGVVNFPRKASRKPPREESSATCVLEQPGALGAQILLVQRPNSGLLAGLWEFPSVTWEPSEQLQRKALLQELQRWAGPLPATHLRHLGEVVHTFSHIKLTYQVYGLALEGQTPVTTVPPGARWLTQEEFHTAAVSTAMKKVFRVYQGQQPGTCMGSKRSQVSSPCSRKKPRMGQQVLDNFFRSHISTDAHSLNSAAQ [K3E],-0.174
7,MQKPRAAVGSGHRKQAASQEGRQKHAKNNSQAKPSACDGLARQPEEVVLQASVSSYHLFRDVAEVTAFRGSLLSWYDQEKRDLPWRRRAEDEMDLDRRAYAVWVSEVMLQQTQVATVINYYTGWMQKWPTLQDLASASLEEVNQLWAGLGYYSRGRRLQEGARKVVEELGGHMPRTAETLQQLLPGVGRYTAGAIASIAFGQATGVVDGNVARVLCRVRAIGADPSSTLVSQQLWGLAQQLVDPARPGDFNQAAMELGATVCTPQRPLCSQCPVESLCRARQRVEQEQLLASGSLSGSPDVEECAPNTGQCHLCLPPSEPWDQTLGVVNFPRKASRKPPREESSATCVLEQPGALGAQILLVQRPNSGLLAGLWEFPSVTWEPSEQLQRKALLQELQRWAGPLPATHLRHLGEVVHTFSHIKLTYQVYGLALEGQTPVTTVPPGARWLTQEEFHTAAVSTAMKKVFRVYQGQQPGTCMGSKRSQVSSPCSRKKPRMGQQVLDNFFRSHISTDAHSLNSAAQ [R2Q],-0.0466
8,MYKPRAAVGSGHRKQAASQEGRQKHAKNNSQAKPSACDGLARQPEEVVLQASVSSYHLFRDVAEVTAFRGSLLSWYDQEKRDLPWRRRAEDEMDLDRRAYAVWVSEVMLQQTQVATVINYYTGWMQKWPTLQDLASASLEEVNQLWAGLGYYSRGRRLQEGARKVVEELGGHMPRTAETLQQLLPGVGRYTAGAIASIAFGQATGVVDGNVARVLCRVRAIGADPSSTLVSQQLWGLAQQLVDPARPGDFNQAAMELGATVCTPQRPLCSQCPVESLCRARQRVEQEQLLASGSLSGSPDVEECAPNTGQCHLCLPPSEPWDQTLGVVNFPRKASRKPPREESSATCVLEQPGALGAQILLVQRPNSGLLAGLWEFPSVTWEPSEQLQRKALLQELQRWAGPLPATHLRHLGEVVHTFSHIKLTYQVYGLALEGQTPVTTVPPGARWLTQEEFHTAAVSTAMKKVFRVYQGQQPGTCMGSKRSQVSSPCSRKKPRMGQQVLDNFFRSHISTDAHSLNSAAQ [R2Y],-0.155
9,MVKPRAAVGSGHRKQAASQEGRQKHAKNNSQAKPSACDGLARQPEEVVLQASVSSYHLFRDVAEVTAFRGSLLSWYDQEKRDLPWRRRAEDEMDLDRRAYAVWVSEVMLQQTQVATVINYYTGWMQKWPTLQDLASASLEEVNQLWAGLGYYSRGRRLQEGARKVVEELGGHMPRTAETLQQLLPGVGRYTAGAIASIAFGQATGVVDGNVARVLCRVRAIGADPSSTLVSQQLWGLAQQLVDPARPGDFNQAAMELGATVCTPQRPLCSQCPVESLCRARQRVEQEQLLASGSLSGSPDVEECAPNTGQCHLCLPPSEPWDQTLGVVNFPRKASRKPPREESSATCVLEQPGALGAQILLVQRPNSGLLAGLWEFPSVTWEPSEQLQRKALLQELQRWAGPLPATHLRHLGEVVHTFSHIKLTYQVYGLALEGQTPVTTVPPGARWLTQEEFHTAAVSTAMKKVFRVYQGQQPGTCMGSKRSQVSSPCSRKKPRMGQQVLDNFFRSHISTDAHSLNSAAQ [R2V],0.0618
10,MWKPRAAVGSGHRKQAASQEGRQKHAKNNSQAKPSACDGLARQPEEVVLQASVSSYHLFRDVAEVTAFRGSLLSWYDQEKRDLPWRRRAEDEMDLDRRAYAVWVSEVMLQQTQVATVINYYTGWMQKWPTLQDLASASLEEVNQLWAGLGYYSRGRRLQEGARKVVEELGGHMPRTAETLQQLLPGVGRYTAGAIASIAFGQATGVVDGNVARVLCRVRAIGADPSSTLVSQQLWGLAQQLVDPARPGDFNQAAMELGATVCTPQRPLCSQCPVESLCRARQRVEQEQLLASGSLSGSPDVEECAPNTGQCHLCLPPSEPWDQTLGVVNFPRKASRKPPREESSATCVLEQPGALGAQILLVQRPNSGLLAGLWEFPSVTWEPSEQLQRKALLQELQRWAGPLPATHLRHLGEVVHTFSHIKLTYQVYGLALEGQTPVTTVPPGARWLTQEEFHTAAVSTAMKKVFRVYQGQQPGTCMGSKRSQVSSPCSRKKPRMGQQVLDNFFRSHISTDAHSLNSAAQ [R2W],-0.00849
11,MSKPRAAVGSGHRKQAASQEGRQKHAKNNSQAKPSACDGLARQPEEVVLQASVSSYHLFRDVAEVTAFRGSLLSWYDQEKRDLPWRRRAEDEMDLDRRAYAVWVSEVMLQQTQVATVINYYTGWMQKWPTLQDLASASLEEVNQLWAGLGYYSRGRRLQEGARKVVEELGGHMPRTAETLQQLLPGVGRYTAGAIASIAFGQATGVVDGNVARVLCRVRAIGADPSSTLVSQQLWGLAQQLVDPARPGDFNQAAMELGATVCTPQRPLCSQCPVESLCRARQRVEQEQLLASGSLSGSPDVEECAPNTGQCHLCLPPSEPWDQTLGVVNFPRKASRKPPREESSATCVLEQPGALGAQILLVQRPNSGLLAGLWEFPSVTWEPSEQLQRKALLQELQRWAGPLPATHLRHLGEVVHTFSHIKLTYQVYGLALEGQTPVTTVPPGARWLTQEEFHTAAVSTAMKKVFRVYQGQQPGTCMGSKRSQVSSPCSRKKPRMGQQVLDNFFRSHISTDAHSLNSAAQ [R2S],0.049
12,MTKPRAAVGSGHRKQAASQEGRQKHAKNNSQAKPSACDGLARQPEEVVLQASVSSYHLFRDVAEVTAFRGSLLSWYDQEKRDLPWRRRAEDEMDLDRRAYAVWVSEVMLQQTQVATVINYYTGWMQKWPTLQDLASASLEEVNQLWAGLGYYSRGRRLQEGARKVVEELGGHMPRTAETLQQLLPGVGRYTAGAIASIAFGQATGVVDGNVARVLCRVRAIGADPSSTLVSQQLWGLAQQLVDPARPGDFNQAAMELGATVCTPQRPLCSQCPVESLCRARQRVEQEQLLASGSLSGSPDVEECAPNTGQCHLCLPPSEPWDQTLGVVNFPRKASRKPPREESSATCVLEQPGALGAQILLVQRPNSGLLAGLWEFPSVTWEPSEQLQRKALLQELQRWAGPLPATHLRHLGEVVHTFSHIKLTYQVYGLALEGQTPVTTVPPGARWLTQEEFHTAAVSTAMKKVFRVYQGQQPGTCMGSKRSQVSSPCSRKKPRMGQQVLDNFFRSHISTDAHSLNSAAQ [R2T],0.0193

# Source: the supplement of paper PMC11908140
